Data as given in US20220193195A1, “LYMPHOTOXIN ALPHA FOR USE IN THERAPY OF MYELOID LEUKEMIA” (Klinikum Rechts der Isar der Technischen Universität München, priority 2019, published 2022).
“Also recorded” adds a separate entry of the source.

What was measured:
[1] = test system: AML primary human samples; experiment: Primary AML bone marrow samples treated in vitro for 7 days (Lin- cells, LSC, CD99- HSPC); format: cell-based; conditions: for cell death of AML cells (blasts, LSCs), comparison between treatments: 7-day treatment of AML primary human samples
Source text: Primary and secondary AML samples were obtained from patients enrolled in the clinical trial AMLCG-2008 (http://clinicaltrial.gov identifier NCT01382147), the AML register protocol of the AML Register and Biomaterial Database of the German Leukemia Study Alliance, the AML register protocol of the German AML Cooperative Group Version 2.0 from Jan. 6, 2011, the AML register protocol of the German AML study group, or treated at the III. Medical Department at the Technical University of Munich after approval of the local ethics committee (approval no. 62/16 S from Feb. 10, 2016 to 2790/10 from Apr. 30, 2010). Informed consent was obtained from patients at study entry.
To examine how targeting TNF/ LT-α signaling can be most effectively used to treat AML, the inventors treated AML primary human samples in vitro. LT-α and a-TNF (Adalimumab) were evaluated, alone or in combination. Moreover, LT-α was tested in combination with the standard AML chemotherapeutic Cytarabine (CYT), the clinical SMAC mimetic Birinapant, and the clinical pan-caspase inhibitor Emricasan. Drug concentrations were determined after titration in healthy bone marrow samples and AML cell lines (data not shown). After 7-day-treatment, cell viability was evaluated, using CD99 to discriminate between non-leukaemogenic HSPCs (CD99^−) and LSCs (FIG. 4c).

[2] = test system: AML cell lines; experiment: Relative number of cells in AML cell lines after treatment (flow cytometry); format: cell-based, human; conditions: panel of nine AML cell lines; 7 days; vs untreated cells
Method: All centrifugation steps were performed at 400×g.

[3] = test system: FLT3-ITD-transduced BM; experiment: Colony forming cell assay (CFU-GEMM) of FLT3-ITD-transduced bone marrow; format: cell-based, mouse; conditions: WT FLT3-ITD transduced cultures; rm LT-α 100 ng/ml, rm TNF 100 ng/ml, Etanercept 50 ng/ml; counted after 10 days; vs control
Method: For colony forming cell assays, all duplicate cultures were performed in 35 mm petri dishes in murine methylcellulose medium (Methocult, Stem Cell Technologies). BM cells of unchallenged or 5-FUchallenged mice were plated in M3434. […] For analysis of colony forming units (CFU) cell viability, colonies were grown for 10 days in the presence of propidium iodide (PI) (0.8 μg/ml; Sigma) and representative CFU-GEMM were imaged using a Keyence BZ-9000 (Biorevo) fluorescence microscope.

[4] = test system: WT FLT3-ITD mice (FLT3-ITD-driven myeloproliferative disorder)
Method: For treatment, two- and eight-weeks post transplantation animals were randomly divided into groups of eight. Mice were i.v. injected twice per week with either isotype control (5 mg/kg; RTK2071; Biolegend), Etanercept (Enbrel®, 50 ng/ml; Pfizer), rm LT-α (250 μg/kg; Cusabio), a-TNF (5 mg/kg; MP6-XT22; Biolegend), or rm LT-α plus a-TNF.
Mice with disease were sacrificed. Peripheral blood white blood cell counts (WBC) were measured by scil Vet abc (scil animal care company). Single-cell suspensions of indicated tissue samples were prepared and red blood cells of peripheral blood were lysed before analysis. Cells were pre-incubated with Fc-block and subsequently stained with fluorescently labeled antibodies. Dead cells were excluded by PI (Sigma) or Zombie Aqua™ Fixable Viability Kit (Biolegend) staining according to the manufacturer's instructions.

[5] = test system: healthy BM
Method: (§1) Human primary samples: Bone marrow mononuclear cells (BMMC) were isolated from heparinized bone marrow samples or bone chips by centrifugation over a Ficoll-Hypaque layer (Biochrom) of 1.077 g/ml density. Cells were harvested and used directly for immunephenotyping or cultured in IMDM (Gibco) supplemented with 20% fetal calf serum (FCS; PAN-Biotech), penicillin/streptomycin 0.05 mM, L-glutamine 2 mM, and 2-mercaptoethanol 0.05 mM (Gibco) on EL08-1D2 stromal cells.
(§2) For flow cytometry analysis after treatment, BM cells or AML cell lines were cultured as described above for 7 days in the presence of the following cytokines and inhibitors if indicated and not stated otherwise: Etanercept (Enbrel®; 50 ng/ml; Pfizer), recombinant human (rh) LT-α (100 ng/ml; R&D), rh TNF (100 ng/ml; R&D), Emricasan (2.5 nM; SelleckChem), Birinapant (10 nM; SelleckChem), Cytarabine (100 nM), a-LTα-Ig (10 μg/ml; 359-238-8; Biolegend), Adalimumab (Humira®; 500 ng/ml; Abbvie), and respective isotype controls Mouse IgG1, κ (MOPC-21; Biolegend), and Ultra-LEAF™ purified Human IgG1 (QA16A12; Biolegend).
(§3) Non-leukemia control samples were collected from individuals who underwent bone marrow aspiration for diagnostic purposes and in whom subsequently a hematological disease was ruled out. Healthy controls were isolated from the femoral heads of patients who underwent surgical hip replacement.
(§4) Antibodies used to separate human hematopoietic cell subsets, for immunephenotyping and intracellular protein expression analysis: Fluorescently labelled antibodies against Lineage Cocktail (Cat #348801; 348703), CD45RA (HI100), CD34 (581), CD38 (HB-7), CD99 (3B2/TA8), CD123 (5B11) were obtained from Biolegend. Flow analysis was performed on a BD FACS Canto II (BD Biosciences) and data were analyzed using FlowJo software (Tree Star).

[6] = test system: K562; experiment: Relative number of K562 CML cells after treatment; conditions: alone or with imatinib 1 or 10 μM; vs untreated cells
Method: As a model for CML, LT-α was tested for potential effects on the cell line K562, either separately against the standard therapy imatinib (in concentrations of 1 or 10 μM) alone, or in combination (FIG. 5).

[7] = test system: healthy BM; experiment: Hematopoietic cell subsets in healthy bone marrow treated with LT-α; conditions: 100 ng/ml LT-α
Method: as §1, §2, §3, §4

[8] = WT FLT3-ITD mice, treated twice per week
[9] = compared to controls, data not shown

CC[C@H](NC(=O)[C@H](C)NC)C(=O)N1C[C@@H](O)C[C@H]1Cc1c(-c2[nH]c3cc(F)ccc3c2C[C@@H]2C[C@H](O)CN2C(=O)[C@H](CC)NC(=O)[C@H](C)NC)[nH]c2cc(F)ccc12 [Birinapant, reference compound]
cell death of AML cells (blasts, LSCs), comparison between treatments [1]: better at promoting cell death, both of blasts and LSCs, than Cytarabine

Etanercept
number of AML cells [2]: not observed | number of GEMM colonies [3]: increase | remission / disease outcome [4, 8]: rapidly succumbed to disease | Median survival ([4]; WT mice transplanted with FLT3-ITD-transduced WT BM, treated i.v. twice per week): 65 days | WBC counts [4, 9]: considerably elevated | hepato-splenomegaly [4, 9]: increased | latency [4, 9]: reduced | leukemic burden [4, 9]: elevated | number of primitive leukemic cells [4, 9]: drastically increased

adalimumab
number of AML cells [2]: drastic reduction

C[C@H](NC(=O)C(=O)Nc1ccccc1C(C)(C)C)C(=O)N[C@@H](CC(=O)O)C(=O)COc1c(F)c(F)cc(F)c1F [Emricasan, reference compound]
cell death of AML cells (blasts, LSCs), comparison between treatments [1]: resistant to LT-α- and Birinapant-induced cell death

B1: LT-α: Lymphotoxin alpha polypeptide (SEQ ID No. 1/2); recombinant mouse LT-α used in mouse tests, recombinant human LT-α in human cell tests (protein, UniProt P01374 35-205, looked up)
Lymphotoxin-alpha: LPGVGLTPSAAQTARQHPKMHLAHSTLKPAAHLIGDPSKQNSLLWRANTDRAFLQDGFSLSNNSLLVPTSGIYFVYSQVVFSGKAYSPKATSSPLYLAHEVQLFSSQYPFHVPLLSSQKMVYPGLQEPWLHSMYHGAAFQLTQGDQLSTHTDGIPHLVLSPSTVFFGAFAL
modifications: mouse LT-α also used
number of AML cells [2]: significantly decreased | toxicity to healthy controls / healthy cells [5]: lacks any pronounced cytotoxicity | effect on K562 cells (relative number of cells) [6]: significant effects; also recorded: kills blast cells | number of GEMM colonies [3]: significantly reduced | tolerability in vivo ([4]; WT FLT3-ITD mice, i.v. twice per week): well tolerated | remission / disease outcome [4, 8]: induced durable remissions | LSCs in FLT3-ITD-transplanted mice ([4]; treated twice per week): eradicates LSCs | toxic effect on healthy bone marrow ([7]; bone marrow samples from healthy control patients): not elicit any detectable toxic effect | healthy haematopoiesis (HSCs and myeloid progenitor subsets) ([7]; healthy BM): sustained | cell death of AML cells (blasts, LSCs), comparison between treatments [1]: more effectively than the standard AML chemotherapeutic Cytarabine; also recorded: more efficient manner than a-TNF | non-leukaemogenic HSPCs (CD99-) ([1]; 7-day treatment, a-TNF = Adalimumab): promoted expansion | Lin- cells (bulk of AML blasts and healthy HSPCs) ([1]; 7-day treatment, rh LT-α 100 ng/ml): killed | LSCs in AML BM samples ([1]; 7-day treatment, rh LT-α 100 ng/ml, a-TNF = Adalimumab 500 ng/ml): killed
